# In the DeepSol protein solubility set:
# Assay: soluble on expression in E. coli; label from the status in PepcDB or PDB records
row,Sequence,soluble on expression in E. coli
1,MRPLLLLALLGWLLLAEAKGDAKPEDNLLVLTVATKETEGFRRFKRSAQFFNYKIQALGLGEDWNVEKGTSAGGGQKVRLLKKALEKHADKEDLVILFTDSYDVLFASGPRELLKKFRQSRSQVVFSAEELIYPDRRLETKYPVVSDGKRFLGSGGFIGYAPNLSKLVAEWEGQDSDSDQLFYTKIFLDPEKREQINITLDHRCRIFQNLDGALDEVVLKFEMGHVRARNLAYDTLPVLIHGNGPTKLQLNYLGNYIPRFWTFETGCTVCDEGLRSLKGIGDEALPTVLVGVFIEQPTPFVSLFFQRLLRLHYPQKHMRLFIHNHEQHHKAQVEEFLAQHGSEYQSVKLVGPEVRMANADARNMGADLCRQDRSCTYYFSVDADVALTEPNSLRLLIQQNKNVIAPLMTRHGRLWSNFWGALSADGYYARSEDYVDIVQGRRVGVWNVPYISNIYLIKGSALRGELQSSDLFHHSKLDPDMAFCANIRQQDVFMFLTNRHTLGHLLSLDSYRTTHLHNDLWEVFSNPEDWKEKYIHQNYTKALAGKLVETPCPDVYWFPIFTEVACDELVEEMEHFGQWSLGNNKDNRIQGGYENVPTIDIHMNQIGFEREWHKFLLEYIAPMTEKLYPGYYTRAQFDLAFVVRYKPDEQPSLMPHHDASTFTINIALNRVGVDYEGGGCRFLRYNCSIRAPRKGWTLMHPGRLTHYHEGLPTTRGTRYIAVSFVDP,not soluble
2,MRPQQLHATEITSSGFRLAWPPLLTADSGYYVLELVPSAQPGAARRQQLPGNATDWIWAGLDPDTDYDVALVPESNVRLLRPQILRVRTRPGEAGPGASGPESGAGPAPTQLAALPAPEEAGPERIVISHARPRSLRVSWAPALGSAAALGYHVQFGPLRGGEAQRVEVPAGRNCTTLQGLAPGTAYLVTVTAAFRSGRESALSAKACTPDGPRPRPRPVPRAPTPGTASREP,soluble
3,MRPVYFLSDFGLEDPYVAVVKAVLAERAPGPAVVDLAHALPPQDLRRAAYALFEALPYLPEGAVVLAVVDPGVGTARRAVAALGRWTYVGPDNGLFTLAWLLDPPRRAFLLEPPRPRPKAALPGWAPGEATFHGRDVFAPAAAHLALGLPPEGLGPEVPVETLARLPLALTEGPEGEVLTFDRFGNAITTLLRAPVGGFVEVGGRRVPVRRTFGEVPEGAPVAYLGSAGLLEVAVNRGSAREALGLKEGMPVRLL,soluble
4,MRPYIINQTEQAQARFGINNDFPVNVILMQPTTSHETFLEGSDYVDFESTSKLRNWPIIVGNQKYFVDPAIFARNSDYFRILMENKFFLEGAIKQLNILDESPEDILKLITVISPNSLGLYPDVIDEQNVCTVLRLCDKYLMTNLKQNCVDYLKDYNPDSREPTDIFHLFYHLCFSLNAEYEHDHSLADVALEAMFVCLVELFNSTNVTKFYRFLIELQRKSGEKDSENLKRVTDAVLHGGSIFKHRISFSEEVQGLGCHQCSMRPPARQSRSKNRKSFVLYLCKSCNREVCVQCRRSLCSRLFEDWINELRS,not soluble
5,MRQHAAPCTQLITWSIEMDNALDFLLEQAQESEDKAVLALSKARSELDSYYHQLRQIEQYRLEYCQQLVERGKSGLTASQYGHLNRFLTQLDETLAKQKSAEQHFRLQVENCEQHWMNMRQKRKSYQWLMEKKQTERQLLQEKREQKQMDEFSTLMFNRRRLSS,not soluble
6,MRQIKVVLIGGGTGLSVMARGLREFPIDITAIVTVADNGGSTGKIRDEMDIPAPGDIRNVIAALSDSESVLSQLFQYRFEENQISGHSLGNLLIAGMTNITNDFGHAIKALSKILNIKGRVIPSTNTSVQLNAVMEDGEIVFGETNIPKKHKKIDRVFLEPNDVQPMEEAIDALREADLIVLGPGSLYTSVISNLCVNGISDALIHSDAPKLYVSNVMTQPGETDGYSVKDHIDAIHRQAGQPFIDYVICSTQTFNAQVLKKYEEKHSKPVEVNKAELEKESINVKTSSNLVEISENHLVRHNTKVLSTMIYDIALELISTIPFVPSDKRKLEHHHHHH,soluble
7,MRQIQSIRLIDVLELAFGVGYKEETTSQFSSDQPSQVVLYRGEANTVRFAYTNQMSLMKDIRIALDGSDKSLTAQIVPGMGHVYEGFQTSARGIFTMSGVPESTVPVANPNVQTKYIRYFKVIDDMHNTMYKGTVFLVQPQAWKYTMKSVDQLPVDDLNHIGVAGIERMTTLIKNAGALLTTGGSGAFPDNIKVSINPKGRQATITYGDGSTDIIPPAVLWKKGSVKEPTEADQSVGTPTPGIPGKFKRDQSLNEHEAMVNVEPLSHVVKDNIKVIDEKSTGRFEPFRPNEDEKEKPASDVKVRPAEVGSWLEPATALPSVEMSAEDRLKS,not soluble
8,MRQNDKIMCILENRKKRDRKNLCRAINDFQQSFQKPETRREFDLSDPLALKKDLPARQSDNDVRNTISGMQKFMGEDLNFHERKKFQEEQNREWSLQQQREWKNARAEQKCAEALYTETRLQFDETAKHLQKLESTTRKAVCASVKDFNKSQAIESVERKKQEKKQEQEDNLAEITNLLRGDLLSENPQQAASSFGPHRVVPDRWKGMTQEQLEQIRLVQKQQIQEKLRLQEEKRQRDLDWDRRRIQGARATLLFERQQWRRQRDLRRALDSSNLSLAKEQHLQKKYMNEVYTNQPTGDYFTQFNTGSR,not soluble
9,MRQVDFSPFYRSTVGFDHLFNWFDSRTQPDDVSSYPPYNIERLSEDSYRISMAVAGFSQDEIDIETHCNQLIVRGERKPENDDEEREFLYRGIASRAFERRFHLADHVKVIGAELGDGLLHIQLKREMPAELKPKKIVVQASSSAVKNGNDHAVRKVSLENERTE,not soluble
10,MRRIGAITALSLPVLLSLLYSCGTGGSASKEEILSKKEHNPEPNIPLECYTDTGVVKLGKAIANPCYVCHTKALTPYENEVDDFDLQLVYDFPEEIKEMGNPWLNAIKPELTIGSVPMPSDEEIKTWIRQDNWSKAYAEKGKGELVYFPDIPPIYKYENGSYELINVDKEGFVRDPETGEYTGWRVFKWKPFPGFFPTNGRIDSTFIRLPEKFRKKNGEFDLNLYKKNLAILECAMKGVAPGETCSGTEVGDFIMPFRYEGDASDVEVVVYQYPPGTEFAHPLYYLDPENTLSFKSLRIKEMRYMKKLAYADTRTGTGEEEEEEGTFFWDKGRFFNDSGYWEMRAFIEDKNGYLRPQSPEESKFCIACHGGIGGTVDGTFTLWRKIPGEEGWKEQDYKNIKDYRYKAITCENLDSLEMGEEVKKALEAYCSKVGESPGEYTVYFALTAGGDHFRSNYEILQDISVDGKVDLELLYNPEKIKFIDNSGFIKPELFFPEPERAYGIDKQYYRIVKAQAFIYGRDVFEKAFGISSGGNSLEELDNLESTGVKESGIWNFVKNFLSSE,not soluble
11,MRRLAWLLPLLLLAGAVGALRYQWLDLPARWNPWLPLDVREPPNLLTRYKLWRLADDRSLCDAALATSQLRYQRVADDPPSATCPLSNSLRVRGAALELSSSFLASCPLAVSYALFERHVLQPAALDIYGQPLARVEHVGSFACRNVYNREDGRRSQHASANALDISGFRLADGRRIRLATDWAGESADGRFLRRVRDGACASFNAVLGPDYNAAHRDHFHLDMGLWKVCRLEHHHHHH,not soluble
12,MRRSGPELWKTLTSVSKSGQKKGRRNTRQPVRPLNRFYRIGSSPMKIEFAGLNAPIRMRETENQNLMSIAEQTEDEIRDSMGGTKKILEERDTGKKKRNREKLHPMERGFSGTQLVGQKLGAPPPLDGVNFDDFETYCLEVKRTSNMTNVFGRVHTMSALVVTGNGRGLAGYAVGKAPIHRTTTAIINGMGMASRKLFHVELHEGRTIYQDFYAECRNTRVFAQRRPRGFGLTCHPRLIKICEAIGIKDIYVKVEGSTKNYLALTHAFVTGLLNQETHQQLAERKGLHVVEMSPSRHFLPQIVASPISTELKTEETLEALDRLNLDDFYGEGRYPLRKPKSLPFFSNLEGHLDARWRKHPFRNQESTMIRLIADNMVPRWTRDARAAWADQRNERMTTGVEPMPLGIGLSHVVPKKDD,not soluble
13,MRRTVRYILATSNPMGDLEALEKFVKLAPDTGADAIALIGNLMPKAAKSRDYAAFFRILSEAHLPTAYVPGPQDAPIWEYLREAANVELVHPEMRNVHETFTFWRGPYLVAGVGGEIADEGEPEEHEALRYPAWVAEYRLKALWELKDYPKIFLFHTMPYHKGLNEQGSHEVAHLIKTHNPLLVLVAGKGQKHEMLGASWVVVPGDLSEGEYSLLDLRARKLETGNVR,soluble
14,MRSANHSELSNALLAISQSLADRSQLTQTLDAVLTAARQMTLAKHGIIYVLDQTGQALIPSTAHHNDKTIVSHPWEALQIDSASENDPFNFAIRNGEVVLINELYKYKGYDCESIYQTEQTLGLKSENLLAWPLIDSESKTIGLLVLLDLNVIDNEAALTEFCRMAASNIRQAVWLEQ,not soluble
